Measurements: patent publication US20100310509A1

Target: OSMR:gp130 receptor complex on A375 melanoma cells (UniProt Q99650)
Test: cell-based or functional assay

OSMR:gp130 receptor complex on A375 melanoma cells, sequence (Q99650 28-979 limits assumed, chain 1 of 2): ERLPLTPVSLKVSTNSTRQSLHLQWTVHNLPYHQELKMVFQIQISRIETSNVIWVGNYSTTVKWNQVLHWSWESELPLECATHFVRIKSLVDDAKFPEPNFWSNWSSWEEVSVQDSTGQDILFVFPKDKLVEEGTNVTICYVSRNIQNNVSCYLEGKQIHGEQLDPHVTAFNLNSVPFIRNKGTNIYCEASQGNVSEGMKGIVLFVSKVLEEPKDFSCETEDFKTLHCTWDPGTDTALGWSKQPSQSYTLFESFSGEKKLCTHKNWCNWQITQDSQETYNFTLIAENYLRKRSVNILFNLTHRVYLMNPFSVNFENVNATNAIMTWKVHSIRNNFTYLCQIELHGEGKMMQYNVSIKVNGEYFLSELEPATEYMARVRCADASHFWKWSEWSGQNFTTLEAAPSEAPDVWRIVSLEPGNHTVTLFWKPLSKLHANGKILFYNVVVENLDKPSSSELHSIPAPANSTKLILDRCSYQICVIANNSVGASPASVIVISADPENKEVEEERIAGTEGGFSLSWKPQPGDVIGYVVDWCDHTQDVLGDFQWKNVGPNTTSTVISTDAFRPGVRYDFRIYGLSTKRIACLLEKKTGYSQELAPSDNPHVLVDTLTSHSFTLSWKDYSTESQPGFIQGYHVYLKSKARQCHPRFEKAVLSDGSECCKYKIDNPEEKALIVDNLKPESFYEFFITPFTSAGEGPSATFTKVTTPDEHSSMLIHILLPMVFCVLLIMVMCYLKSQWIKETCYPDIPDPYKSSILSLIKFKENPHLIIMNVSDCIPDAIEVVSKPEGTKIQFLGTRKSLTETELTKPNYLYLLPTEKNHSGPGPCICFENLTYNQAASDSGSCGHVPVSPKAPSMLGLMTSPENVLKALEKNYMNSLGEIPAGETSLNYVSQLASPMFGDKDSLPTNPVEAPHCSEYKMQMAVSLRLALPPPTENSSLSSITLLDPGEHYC
OSMR:gp130 receptor complex on A375 melanoma cells, sequence (P40189 23-918 limits assumed, chain 2 of 2, further chain): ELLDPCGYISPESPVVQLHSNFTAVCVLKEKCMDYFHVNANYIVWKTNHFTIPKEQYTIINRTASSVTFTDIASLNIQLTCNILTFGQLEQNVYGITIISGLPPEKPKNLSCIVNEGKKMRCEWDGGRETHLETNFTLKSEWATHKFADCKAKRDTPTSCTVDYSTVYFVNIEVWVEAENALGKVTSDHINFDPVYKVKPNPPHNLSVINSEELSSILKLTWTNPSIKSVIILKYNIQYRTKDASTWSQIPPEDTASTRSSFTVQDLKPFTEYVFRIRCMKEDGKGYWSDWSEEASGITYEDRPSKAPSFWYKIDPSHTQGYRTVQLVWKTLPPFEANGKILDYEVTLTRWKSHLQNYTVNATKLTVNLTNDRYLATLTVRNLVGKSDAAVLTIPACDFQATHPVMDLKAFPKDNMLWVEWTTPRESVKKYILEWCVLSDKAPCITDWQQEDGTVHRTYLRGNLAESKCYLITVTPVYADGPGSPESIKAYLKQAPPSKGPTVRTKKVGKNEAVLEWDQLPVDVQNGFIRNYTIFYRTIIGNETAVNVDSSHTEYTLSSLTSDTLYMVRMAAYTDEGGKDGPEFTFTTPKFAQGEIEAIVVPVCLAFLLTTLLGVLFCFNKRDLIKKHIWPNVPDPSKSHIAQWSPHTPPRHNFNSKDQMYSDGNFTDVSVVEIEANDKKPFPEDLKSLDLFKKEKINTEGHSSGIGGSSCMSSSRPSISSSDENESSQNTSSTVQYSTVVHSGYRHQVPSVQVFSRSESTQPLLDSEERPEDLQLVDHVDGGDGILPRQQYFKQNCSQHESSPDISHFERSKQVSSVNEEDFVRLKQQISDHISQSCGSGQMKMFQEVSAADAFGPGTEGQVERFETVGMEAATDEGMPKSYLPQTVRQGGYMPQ

concentration that suppresses A375 melanoma cell proliferation by ~50%: 20 ng/mL
concentration that suppresses A375 melanoma cell proliferation by ~90%: 50 ng/mL
Substance: OSM-WT ('AGA' modified human Oncostatin M, referred to as wild-type OSM) (from UniProt P13725 26-217) (ligand)
